Measured values reported in article PMC7841142.
“And” between values parts separate entries of the source, which are not always exact repeats. Equal values may be shown once. Values belong to the molecule of their own block, whether it stands above or below them.

Key:
[1] = biological target: Ncam1a, Myc- and 6x His-tagged (complete coding sequence), in Hek293 cells (zebrafish); assay: co-IP; Hek293 cells co-transfected with Myc/His-tagged Ncam1a or Ncam1b and FLAG-tagged Fgfr1a-IIIb or -IIIc; lysates precipitated with anti-His antibody and ProteinA beads, blotted with biotinylated FLAG-antibody; band density by Fiji, three independent experiments
Ncam1a, Myc- and 6x His-tagged (complete coding sequence), in Hek293 cells (zebrafish), sequence (main, as listed by the source): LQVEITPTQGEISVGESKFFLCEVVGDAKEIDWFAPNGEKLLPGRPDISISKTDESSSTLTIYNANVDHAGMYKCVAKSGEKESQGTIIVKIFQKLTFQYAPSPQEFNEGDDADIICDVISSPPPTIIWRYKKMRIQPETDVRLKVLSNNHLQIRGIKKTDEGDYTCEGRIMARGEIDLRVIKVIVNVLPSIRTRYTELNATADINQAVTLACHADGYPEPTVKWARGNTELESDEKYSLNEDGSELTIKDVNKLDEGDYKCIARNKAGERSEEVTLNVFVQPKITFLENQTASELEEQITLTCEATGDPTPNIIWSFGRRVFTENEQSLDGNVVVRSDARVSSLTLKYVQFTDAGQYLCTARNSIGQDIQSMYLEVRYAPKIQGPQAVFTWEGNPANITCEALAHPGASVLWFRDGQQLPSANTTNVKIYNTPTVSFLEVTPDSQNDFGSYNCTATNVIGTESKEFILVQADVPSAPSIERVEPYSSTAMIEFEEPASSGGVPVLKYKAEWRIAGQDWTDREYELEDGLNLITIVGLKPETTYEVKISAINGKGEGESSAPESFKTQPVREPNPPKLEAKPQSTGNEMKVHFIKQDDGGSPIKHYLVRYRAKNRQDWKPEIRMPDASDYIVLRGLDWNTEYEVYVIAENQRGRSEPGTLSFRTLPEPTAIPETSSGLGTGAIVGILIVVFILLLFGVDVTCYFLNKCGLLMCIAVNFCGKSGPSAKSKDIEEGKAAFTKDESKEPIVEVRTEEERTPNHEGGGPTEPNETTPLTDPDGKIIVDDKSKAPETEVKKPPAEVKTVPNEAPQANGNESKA

[2] = biological target: Ncam1b, Myc- and 6x His-tagged (complete coding sequence), in Hek293 cells (zebrafish); assay: as above
[3] = biological target: Ncam1b, membrane-bound, Myc- and 6x His-tagged (complete coding sequence), on CHO-K1 cells (zebrafish); assay: immunostaining of cells or tissue; cell overlay assay: transfected CHO-K1 cells (membrane-bound His-tagged protein) on fibronectin-coated coverslips incubated with 20 μg/ml soluble Fc-tagged protein for 1 h at room temperature, washed, fixed, stained with anti-His and anti-hFcγ; read out as binding coefficient (percent of transfected cells co-labelled) and as fluorescence intensity of transfected vs. untransfected cells
[4] = biological target: Fgfr1a-IIIb, membrane-bound, Myc- and 6x His-tagged (complete coding sequence, exon 9.1 variant), on CHO-K1 cells (zebrafish); assay: as above
[5] = biological target: T1, Fgfr1a-IIIc, membrane-bound, Myc- and 6x His-tagged (complete coding sequence), on CHO-K1 cells (zebrafish), Q90Z00; assay: immunostaining of cells or tissue; cell overlay assay: transfected CHO-K1 cells (membrane-bound His-tagged protein) on fibronectin-coated coverslips incubated with 20 μg/ml soluble Fc-tagged protein for 1 h at room temperature, washed, fixed, stained with anti-His and anti-hFcγ; read out as binding coefficient (percent of transfected cells co-labelled) and as fluorescence intensity of transfected vs. untransfected …
T1 chain: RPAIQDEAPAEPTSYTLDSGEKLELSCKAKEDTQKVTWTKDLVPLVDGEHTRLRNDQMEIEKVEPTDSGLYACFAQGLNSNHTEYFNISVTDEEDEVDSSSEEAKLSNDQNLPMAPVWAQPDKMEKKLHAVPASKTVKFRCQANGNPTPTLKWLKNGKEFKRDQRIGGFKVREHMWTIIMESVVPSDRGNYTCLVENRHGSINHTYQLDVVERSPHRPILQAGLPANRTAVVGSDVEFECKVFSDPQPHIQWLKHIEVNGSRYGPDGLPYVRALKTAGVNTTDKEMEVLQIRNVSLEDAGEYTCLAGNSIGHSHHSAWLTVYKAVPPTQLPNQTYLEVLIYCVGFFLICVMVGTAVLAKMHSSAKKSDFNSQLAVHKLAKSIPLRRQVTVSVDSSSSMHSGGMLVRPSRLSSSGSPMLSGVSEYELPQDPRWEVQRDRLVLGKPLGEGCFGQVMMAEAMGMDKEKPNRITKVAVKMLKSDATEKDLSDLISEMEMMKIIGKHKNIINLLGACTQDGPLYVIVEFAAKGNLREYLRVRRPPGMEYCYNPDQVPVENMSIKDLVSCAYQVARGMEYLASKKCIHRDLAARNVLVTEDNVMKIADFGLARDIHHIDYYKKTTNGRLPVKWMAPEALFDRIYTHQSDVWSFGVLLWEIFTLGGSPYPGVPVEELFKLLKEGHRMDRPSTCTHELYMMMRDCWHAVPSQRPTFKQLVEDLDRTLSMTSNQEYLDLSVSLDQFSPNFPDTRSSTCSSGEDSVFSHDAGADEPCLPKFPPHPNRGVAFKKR

band density (Intensity Density) of co-precipitated FLAG-tagged receptor (Intensity Density) [1]: 117000 | band density (Intensity Density) of co-precipitated FLAG-tagged receptor (Intensity Density) [2]: 138000
Molecule: Fgfr1a-IIIc, FLAG-tagged (complete coding sequence), in Hek293 cells (from UniProt Q90Z00 27-810) (receptor)

binding coefficient (percent of transfected cells co-labelled for the soluble partner) [3]: 90%
Molecule: soluble Fgfr1a-IIIb-Fc (extracellular part of Fgfr1a-IIIb with hIgG-Fc-Tag) (Fc fusion)

binding coefficient (percent of transfected cells co-labelled for the soluble partner) [4]: 90% | fluorescence intensity of bound soluble Ncam1b, transfected over untransfected cells [4]: 80 % higher
Molecule: soluble Ncam1b-Fc (extracellular part of Ncam1b with hIgG-Fc-Tag) (Fc fusion)

band density (Intensity Density) of co-precipitated FLAG-tagged receptor (Intensity Density) [1]: 89500 | band density (Intensity Density) of co-precipitated FLAG-tagged receptor (Intensity Density) [2]: 170000 and 203000
Molecule: Fgfr1a-IIIb, FLAG-tagged (complete coding sequence), in Hek293 cells (receptor)

binding coefficient (percent of transfected cells co-labelled for the soluble partner) [3]: 60%
Molecule: soluble Fgfr1a-IIIc-Fc (extracellular part of Fgfr1a-IIIc with hIgG-Fc-Tag) (from UniProt Q90Z00 27-363) (Fc fusion)

binding coefficient (percent of transfected cells co-labelled for the soluble partner) [5]: 60%
B1: soluble Ncam1b-Fc (extracellular part of Ncam1b with hIgG-Fc-Tag) (Fc fusion)
chain: LQVDITPAHGEISVGESRFFLCEVIGGAKEIDWFAPAGEKIEPGRPDISVIRNDETSSTLTIYNAKVDNAGTYRCVASSGDQDAEATVNLKIYQKITFTNVPSPQEFTEGDNAIIVCDVISSPPPTVLWKYKGAKIQFDKDVRFKTLSNNHLQIRGIRKTDEGVYTCEGRIKARGEVDFRSIKVVVNVLPTIRIRQAETNATADMGFSTLLACDPDGFPEPIVTWRRNNAPLESGNKYSFNEDGSEMTVLDVTKLDEGDYTCIAKNKAGESEQELSLKVFVQPKITYLESQTTTEMDEQVTLTCEATGDPTPTITWSFGTRVFTEGEQASWTRPEQHKGPDGEVLVRSDARVSSLTLKYPQYTDAGQYLCTARNAIGETVQPVSLEVRYAPKILGSVAVYTWEGNPANISCEVLAHPSDVSITWLRDGFQLPNANTSNIKIHNTPSASYLEVNPESQSDFGNYNCTASNEIGTESREFIMIPADVPSAPSIGEVQPYSSTAQVLFEEPESTGGVPVLKYRAEWRAVGRGKWVQRVYEVKDGLSSVTVTGLKPETDYEVKMSAINGKGEGDSSPSMVFKTEHVQGEPSPPILEGTLQPKGNSLKVKWIKQDDGGSPITHYLVRYKAREDSEWKPEIRLPSGSEYVMLIGLDWDTEYDVFVVAENQQGKSKPGTLTFRTSSEPTATTDSMEDGPGLNTG
modifications: not checked
